Results reported in patent publication US20200355707A1.

What was measured:
[1] = target: prostate specific antigen (ABIN572980) (UniProt P07288); assay: in situ ellipsometry; 100 pM antigen in borate buffer pH 8 on the antibody-modified rSAM
[2] = target: prostate specific antigen (ABIN572980) (UniProt P07288); assay: in situ ellipsometry on rSAM-SA-anti-PSA sensor, buffer
[3] = target: prostate specific antigen (ABIN572980) (UniProt P07288); assay: in situ ellipsometry; PSA spiked into 200-fold diluted human serum
[4] = target: prostate specific antigen (ABIN572980) (UniProt P07288); assay: in situ ellipsometry, PSA from buffer media
[5] = target: prostate specific antigen (ABIN572980) (UniProt P07288); assay: ellipsometry; PSA layer formed on rSAM-SA-biotinylated anti-PSA
[6] = target: biotinylated anti-human-serum-albumin antibody; assay: ellipsometry; biotinylated anti-HSA (5 µM) layer on streptavidin-modified rSAM; binding through biotin
[7] = target: biotinylated prostate specific antigen antibody (ABIN 192197); assay: ellipsometry; biotinylated anti-PSA (5 µM) layer on streptavidin-modified rSAM; binding through biotin

| film thickness increase [1] [nm] | detection limit [2] [fM] | film thickness increase [3] [nm] | maximum surface coverage [4] [mg/m^2] | top layer thickness [5] [nm] | top layer thickness [6] [nm] | top layer thickness [7] [nm] | Substance |
| --- | --- | --- | --- | --- | --- | --- | --- |
| 4 | 40 | 4 | 2.4 | 4 |  |  | biotinylated prostate specific antigen antibody (ABIN 192197) |
|  |  |  |  |  | 3.4 | 4 | streptavidine (from UniProt P22629 37-163) |
